Measured values taken from PMC3113324, “AKAP5 and AKAP12 Form Homo-oligomers” (Journal of Molecular Signaling, 2011).

Target: the molecule itself
Assay: SDS-PAGE (SDS-resistant oligomers); purified His-tagged proteins resolved on SDS-PAGE without urea; Coomassie staining and immunoblotting

B1: His-tagged AKAP12 (840-1782) (domain or fragment, human, UniProt Q02952 840-1782, looked up)
chain: DSDVPAVVPLSEYDAVEREKMEAQQAQKSAEQPEQKAATEVSKELSESQVHMMAAAVADGTRAATIIEERSPSWISASVTEPLEQVEAEAALLTEEVLEREVIAEEEPPTVTEPLPENREARGDTVVSEAELTPEAVTAAETAGPLGAEEGTEASAAEETTEMVSAVSQLTDSPDTTEEATPVQEVEGGVPDIEEQERRTQEVLQAVAEKVKEESQLPGTGGPEDVLQPVQRAEAERPEEQAEASGLKKETDVVLKVDAQEAKTEPFTQGKVVGQTTPESFEKAPQVTESIESSELVTTCQAETLAGVKSQEMVMEQAIPPDSVETPTDSETDGSTPVADFDAPGTTQKDEIVEIHEENEVASGTQSGGTEAEAVPAQKERPPAPSSFVFQEETKEQSKMEDTLEHTDKEVSVETVSILSKTEGTQEADQYADEKTKDVPFFEGLEGSIDTGITVSREKVTEVALKGEGTEEAECKKDDALELQSHAKSPPSPVEREMVVQVEREKTEAEPTHVNEEKLEHETAVTVSEEVSKQLLQTVNVPIIDGAKEVSSLEGSPPPCLGQEEAVCTKIQVQSSEASFTLTAAAEEEKVLGETANILETGETLEPAGAHLVLEEKSSEKNEDFAAHPGEDAVPTGPDCQAKSTPVIVSATTKKGLSSDLEGEKTTSLKWKSDEVDEQVACQEVKVSVAIEDLEPENGILELETKSSKLVQNIIQTAVDQFVRTEETATEMLTSELQTQAHVIKADSQDAGQETEKEGEEPQASAQDETPITSAKEESESTAVGQAHSDISKDMSEASEKTMTVEVEGSTVNDQQLEEVVLPSEEEGGGAGTKSVPEDDGHALLAERIEKSLVEPKEDEKGDDVDDPENQNSALADTDASGGLTKESPDTNGPKQKEKEDAQEVELQEGKVHSESDKAITPQAQEELQKQERESAKSELTES
notes: AKAP12, human, C-terminal fragment, residues 840-1782, in pET28b(+); also called C-terminal (840-1782) fragment of AKAP12; source: E. coli, purified (Ni-NTA)
stoichiometry N: 2

B2: His-tagged AKAP12 (1-840) (domain or fragment, human, UniProt Q02952 1-840, looked up)
chain: MGAGSSTEQRSPEQPPEGSSTPAEPEPSGGGPSAEAAPDTTADPAIAASDPATKLLQKNGQLSTINGVAEQDELSLQEGDLNGQKGALNGQGALNSQEEEEVIVTEVGQRDSEDVSKRDSDKEMATKSAVVHDITDDGQEETPEIIEQIPSSESNLEELTQPTESQANDIGFKKVFKFVGFKFTVKKDKTEKPDTVQLLTVKKDEGEGAAGAGDHKDPSLGAGEAASKESEPKQSTEKPEETLKREQSHAEISPPAESGQAVEECKEEGEEKQEKEPSKSAESPTSPVTSETGSTFKKFFTQGWAGWRKKTSFRKPKEDEVEASEKKKEQEPEKVDTEEDGKAEVASEKLTASEQAHPQEPAESAHEPRLSAEYEKVELPSEEQVSGSQGPSEEKPAPLATEVFDEKIEVHQEEVVAEVHVSTVEERTEEQKTEVEETAGSVPAEELVEMDAEPQEAEPAKELVKLKETCVSGEDPTQGADLSPDEKVLSKPPEGVVSEVEMLSSQERMKVQGSPLKKLFTSTGLKKLSGKKQKGKRGGGDEESGEHTQVPADSPDSQEEQKGESSASSPEEPEEITCLEKGLAEVQQDGEAEEGATSDGEKKREGVTPWASFKKMVTPKKRVRRPSESDKEDELDKVKSATLSSTESTASEMQEEMKGSVEEPKPEEPKRKVDTSVSWEALICVGSSKKRARRGSSSDEEGGPKAMGGDHQKADEAGKDKETGTDGILAGSQEHDPGQGSSSPEQAGSPTEGEGVSTWESFKRLVTPRKKSKSKLEEKSEDSIAGSGVEHSTPDTEPGKEESWVSIKKFIPGRRKKRPDGKQEQAPVEDAGPTGANEDD
notes: AKAP12, human, N-terminal fragment, residues 1-840, in pET28b(+); also called N-terminal (1-840) fragment of AKAP12; source: E. coli, purified (Ni-NTA)
stoichiometry N: 2
